# Laboratory results as given in patent US20030226164, “Lambda integrase mediated recombination in plants” (Syngenta Participations AG, published 2003).
# Where a chain is given by its changes, count along the chain named.
# T1: Lambda Int-h/218 E174K,E218K (Bacteriophage lambda) (UniProt P03700)
# T1 sequence: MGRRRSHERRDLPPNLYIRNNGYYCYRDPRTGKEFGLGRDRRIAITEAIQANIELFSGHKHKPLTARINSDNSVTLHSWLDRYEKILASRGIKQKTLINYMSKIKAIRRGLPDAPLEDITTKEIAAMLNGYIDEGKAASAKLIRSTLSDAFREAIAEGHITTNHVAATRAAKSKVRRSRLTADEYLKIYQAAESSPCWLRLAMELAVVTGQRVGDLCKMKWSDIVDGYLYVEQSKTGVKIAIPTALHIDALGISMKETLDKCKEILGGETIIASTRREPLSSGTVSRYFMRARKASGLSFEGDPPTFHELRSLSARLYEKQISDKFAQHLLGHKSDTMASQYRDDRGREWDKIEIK
# T2: Lambda Int-h (SynInt-h) E174K (Bacteriophage lambda) (UniProt P03700)
# T2 sequence: T1 sequence with K218E
# T3: Lambda Int-h (SynInt-h) (Bacteriophage lambda, UniProt P03700 SEQ:1-356, E174K)
# T3 sequence: T1 sequence with K218E
# T4: Lambda Int-h/218 (Bacteriophage lambda, UniProt P03700 SEQ:1-356, E174K,E218K)
# T4 sequence: T1 sequence
# B1: attB (dsDNA)
# DNA 1: TGAAGCCTGCTTTTTTATACTAACTTGAGCG
# DNA 2: CGCTCAAGTTAGTATAAAAAAGCAGGCTTCA
# Tests used:
# [1] = target: T1, Lambda Int-h/218 E174K,E218K (Bacteriophage lambda); test: cell_activity; conditions: attP x attB without IHF, maize BMS cells
# [2] = target: T2, Lambda Int-h (SynInt-h) E174K (Bacteriophage lambda); test: cell_activity; conditions: attP x attB without IHF, maize BMS cells
# Lambda Int-h (SynInt-h) = target: T3, Lambda Int-h (SynInt-h); test: cell_activity; attB x attP without IHF, maize BMS cells; conditions: chain copies: 4
# Procedure: (§1) Bombarded BMS cells are incubated in the dark at 28° C. for 48 hours. After incubation, the cells are assayed for luciferase expression levels.
# Lambda Int-h/218 = target: T4, Lambda Int-h/218; test: as above; conditions: chain copies: 4
# Procedure: as §1
Molecule,activity (fold luciferase over substrate alone) [1],activity (fold luciferase over substrate alone) [2],activity (Lambda Int-h (SynInt-h)),activity (Lambda Int-h/218)
TCTGTTACAGGTCACTAATACCATCTAAGTAGTTGATTCATAGTGACTGCATATGTTGTGTTTTACAGTATTATGTAGTCTGTTTTTTATGCAAAATCTAATTTAATATATTGATATTTATATCATTTTACGTTTCTCGTTCAGCTTTTTTATACTAAGTTGGCATTATAAAAAAGCATTGCTTATCAATTTGTTGCAACGAACAGGTCACTATCAGTCAAAATAAAATCATTATTTGATTTC (double strand) [attP],49,15,–,–
B1,–,–,15 fold luciferase over substrate alone,49 fold luciferase over substrate alone
